In patent publication US20240277845A1:

Tests used:
Fc-iNKG2D.YA (human) = Fc-iNKG2D.YA (human) (UniProt P26718); test: ELISA; wells coated with Fc-iNKG2D.YA, R3Mab heavy-chain MicAbody titrated
Fc-wtNKG2D (human) = Fc-wtNKG2D (human) (UniProt P26718); test: ELISA; wells coated with Fc-wtNKG2D, R3Mab heavy-chain MicAbody titrated
Fc-wtNKG2D (human), sequence (P26718 other isoform, or with tags, fused parts or gaps limits assumed): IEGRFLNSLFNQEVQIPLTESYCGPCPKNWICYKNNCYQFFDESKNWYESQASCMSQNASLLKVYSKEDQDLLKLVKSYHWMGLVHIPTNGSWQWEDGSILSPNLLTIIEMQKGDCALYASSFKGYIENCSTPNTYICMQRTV

Fc-iNKG2D.YA (human), sequence (P26718 other isoform, or with tags, fused parts or gaps limits assumed): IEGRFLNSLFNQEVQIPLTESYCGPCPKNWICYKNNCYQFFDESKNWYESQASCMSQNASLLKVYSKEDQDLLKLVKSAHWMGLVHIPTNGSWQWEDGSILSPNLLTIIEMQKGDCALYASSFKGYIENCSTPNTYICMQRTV

| Binder | EC50 (read off the curve) (Fc-iNKG2D.YA (human)) [nM] | EC50 (read off the curve) (Fc-wtNKG2D (human)) [nM] |
| --- | --- | --- |
| R3Mab heavy-chain fusion of U2S3 (MicAbody) (bispecific antibody, part only; not given: R3Mab variable domains, light chain, Fc, IgG1, not shown: a dimerising Fc or GST) heavy, part: GGGSEPHSLSYDITVIPKFRPGPRWCAVQGQVDEKTFLHYDCGNKTVTPVSPLGKKLNVTTAWKAQNPVLREVVDILTEQLWDIQLENYTPKEPLTLQARMSCEQKAEGHSSGSWQFSFDGQIFLLFDSEKRMWTTVHPGARKMKEKWENDKVVATKLYLWSMGDCIGWLEDFLMGMDSTLEP | 0.02 |  |
| R3Mab heavy-chain fusion of wild-type ULBP2 (MicAbody) (bispecific antibody, part only; not given: R3Mab variable domains, light chain, Fc, not shown: a dimerising Fc or GST) heavy, part: GGGSDPHSLCYDITVIPKFRPGPRWCAVQGQVDEKTFLHYDCGNKTVTPVSPLGKKLNVTTAWKAQNPVLREVVDILTEQLRDIQLENYTPKEPLTLQARMSCEQKAEGHSSGSWQFSFDGQIFLLFDSEKRMWTTVHPGARKMKEKWENDKVVAMSFHYFSMGDCIGWLEDFLMGMDSTLEPSAGAP |  | 0.4 |
| R3Mab heavy-chain fusion of ULBP2 R81W (MicAbody) (bispecific antibody, part only; not given: R3Mab variable domains, light chain, Fc, not shown: a dimerising Fc or GST) heavy, part: GGGSDPHSLCYDITVIPKFRPGPRWCAVQGQVDEKTFLHYDCGNKTVTPVSPLGKKLNVTTAWKAQNPVLREVVDILTEQLWDIQLENYTPKEPLTLQARMSCEQKAEGHSSGSWQFSFDGQIFLLFDSEKRMWTTVHPGARKMKEKWENDKVVAMSFHYFSMGDCIGWLEDFLMGMDSTLEPSAGAP |  | 0.02 |
